# Assay results: US5767233A, “Soluble cleavable substrates of the hepatitis C virus protease” (Schering Corporation, priority 1995, dated 1998)
# “Also recorded” adds a separate entry of the source.
# Legend:
# Assay type in all cases: biochemical, Hepatitis C virus (HCV)
# [1] = system: NS3 protease (pBJ1022, NS3 catalytic domain); assay: Enhancement by 4A peptides of NS3 cleavage in the in vitro translation assay; conditions: no NS3 protease present
# Description: (§1) The plasmid pTS102 encoding the substrate 5A/5B was linearized by digestion with EcoR I and was transcribed using T7 RNA polymerase in vitro. The RNA was translated in presence of ^35 S methionine in rabbit reticulocyte lysates according to the manufacturer's (Promega protocol to produce HCV specific protein. In a 20 μl total reaction mixture containing 10 mM Tris, pH 7.5, 1 mM DTT, 0.5 mM EDTA, and 10% glycerol was placed 2 to 8 μl of ^35 S methionine-labeled translated 5A/5B substrate. The reaction was started with the addition of 10 μl of HCV NS3 protease in solubilization buffer (50 mM Na Phosphate, pH 7.8, 0.3M NaCl, 0.2% Tween 20, 10 mM DTT or BME, 10% glycerol), and incubated at 30° C. for the specified time. Reactions were stopped by adding an equal volume of 2X Laemmli sample buffer (Enprotech Inc.) and heating at 100° C. for 3 minutes. Reaction products were separated by SDS PAGE electrophoresis; gels were fixed, dried and subjected to autoradiography.
# (§2) NS4A is able to enhance the NS3 serine protease activity at NS5A/5B site in mammalian cells that transiently coexpress NS3, NS4A, and the various HCV non-structural polyprotein containing downstream cleavage sites. We have studied this enhancement activity in a well defined cell-free biochemical assay, using the partially purified E. coli-expressed pBJ1022 as a source of NS3 protease, and synthetic peptides containing various truncations of NS4A. In our first experiment we used a crude cell lysate of pBJ1022 as the enzyme and NS4A synthetic peptide truncated 33 mer from amino acid 22 to amino acid 54, the carboxy-terminal in vitro translation cleavage reaction.
# (§3) To further characterize NS4A enhancement activity additional truncations were made to the NS4A sequence. Truncated peptides were evaluated for their activity in the in vitro translation assay using Ni^2+ chelate column-purified pBJ1022 (NS3 catalytic domain).
# [2] = biological target: T1, NS3 protease (pBJ1022, NS3 catalytic domain) (Hepatitis C virus genotype 1a, UniProt P27958); assay: as above
# T1 construct: made in house; host or cells: E. coli M15 [pREP4]
# T1 sequence (P27958 1028-1209): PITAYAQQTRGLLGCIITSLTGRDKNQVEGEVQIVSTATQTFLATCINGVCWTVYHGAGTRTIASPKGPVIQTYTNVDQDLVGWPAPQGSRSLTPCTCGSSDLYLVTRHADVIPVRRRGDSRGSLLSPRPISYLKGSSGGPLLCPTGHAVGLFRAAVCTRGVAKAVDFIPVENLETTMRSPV
# Description: as §1, §2, §3
# [3] = system: in vitro translated 5A/5B substrate (40 kD protein containing the NS5A/5B cleavage site); assay: Analysis of NS3 protease activity by in vitro translation assay
# Source text: (§4) To detect HCV NS3 protease activity in trans, we have expressed a 40 kD protein containing the NS5A/5B cleavage site in cell-free translation system and used that as the substrate for the enzyme. The substrate protein produces two protein products of apparent molecular weight 12.5 kD (NS 5A') and 27 kD (NS5B') upon cleavage by the HCV NS3 protease.
# as §1
# [4] = system: in vitro-translated 5A/5B substrate; assay: Analysis of refolded NS3 protease activity by in vitro translation assay; conditions: in the presence of 4A peptide (33 mer, 2 μM), 30° C., about one hour
# Source text: as §4
# as §1, with “(Promega)” for “(Promega”, “protease (SEQ ID NO: 5) with an approximately equimolar amount (2 μM) of the carboxyterminal 33 mer cofactor NS4A (SEQ ID NO: 29)” for “protease”, “about one hour.” for “the specified time.”, “Reaction products were separated by SDS PAGE electrophoresis; gels were fixed, dried and subjected to autoradiography.” left out
molecule,measurement,setting,value
C-terminal 33 amino acid peptide of NS4A: NS4A synthetic peptide truncated 33 mer from amino acid 22 to amino acid 54 (strain HCV-BK) (CVVIVGRIVLSGKPAIIPDREVLYQEFDEMEEC),cleavage of the substrate by the 4A peptide itself or with vector lysate,[1],did not cleave the substrate
same,enhancement of NS3 mediated cleavage activity,[2]; Ni2+ chelate column-purified pBJ1022 (NS3 catalytic domain),able to enhance the NS3 mediated cleavage activity
same,enhancement of NS3 catalytic domain activity at the 5A/5B site,"[2]; crude cell lysate of pBJ1022 as enzyme, 0.01 μM to 1.0 μM peptide, 30 minutes",able to enhance the activity of the NS3 catalytic domain in a dose dependent manner
"pBJ1022: E. coli-expressed His-tagged NS3 protease catalytic domain with hydrophilic tail, named by its plasmid (protein) MRGSHHHHHHTDPPITAYAQQTRGLLGCIITSLTGRDKNQVEGEVQIVSTATQTFLATCINGVCWTVYHGAGTRTIASPKGPVIQMYTNVDQDLVGWPAPQGSRSLTPCTCGSSDLYLVTRHADVIPVRRRGDSRGSLLSPRPISYLKGSSGGPLLCPAGHAVGLFRAAVCTRGVTKAVDFIPVENLETTMRSPVRKKKRR",HCV protease activity of imidazole-eluted fractions,"[3]; POROS Ni2+ chelate purification, NS4A amino acids 22 to 54 peptide added at 1 μM",active
same,"cleavage activity by the protease alone, without the 4A peptide","[3]; crude cell lysate, incubation time of 30 minutes",relatively low cleavage activity
same,cleavage of 5A/5B substrate by crude soluble lysate,"[3]; two hour assay at 30° C., lysate at 3, 6 and 10 μl, SDS PAGE",able to cleave 5A/5B substrate in a dose responsive manner
"HisHIV183: histidine-tagged HCV NS3 protease without solubilizing motif, refolded from E. coli inclusion bodies (protein) MRGSHHHHHHGSHKARVLAEAMSHGTMAPITAYAQQTRGLLGCIITSLTGRDKNQVEGEVQIVSTATQTFLATCINGVCWTVYHGAGTRTIASPKGPVIQMYTNVDQDLVGWPAPQGSRSLTPCTCGSSDLYLVTRHADVIPVRRRGDSRGSLLSPRPISYLKGSSGGPLLCPAGHAVGLFRAAVCTRGVTKAVDFIPVENLETTMRSPV",trans-cleavage activity of the refolded protease on 5A/5B substrate,[4],active; also recorded: able to cleave 5A/5B substrate in a dose responsive manner
"pNB182Δ4A: E. coli-expressed fusion of NS3 catalytic domain (182aa)-G-NS4A(4-54) with hydrophilic tail, named by its plasmid (protein) MRGSHHHHHHTDPPITAYAQQTRGLLGCIITSLTGRDKNQVEGEVQIVSTATQTFLATCINGVCWTVYHGAGTRTIASPKGPVIQMYTNVDQDLVGWPAPQGSRSLTPCTCGSSDLYLVTRHADVIPVRRRGDSRGSLLSPRPISYLKGSSGGPLLCPAGHAVGLFRAAVCTRGVTKAVDFIPVENLETTMRSPGVLVGGVLAALAAYCLSTGCVVIVGRIVLSGKPAIIPDREVLYQEFDEMEECRKKKRRKLN",time at which 5A and 5B cleavage products began to appear,"[3]; 30° C., soluble lysate at 1 μl per 20 μl reaction volume",1 min
same,amount of lysate at which cleavage reached a maximum,[3]; 30 minutes incubation,1 µL
same,least amount of cell lysate at which 5A and 5B cleavage products were detected,[3]; 30 minutes incubation,0.125 µL
same,activity of crude soluble lysate compared with pBJ1022 lysate,"[3]; crude soluble lysate, 30 minutes incubation",much more active
same,cleavage of translated 5A/5B substrate by imidazole-eluted fractions,[3]; fractions from Ni-NTA column purification,all able to cleave the translated 5A/5B Substrate
